In US20080227698A1, “OLIGOPEPTIDES FOR TREATMENT OF OSTEOPOROSIS AND OTHER BONE DISEASES AND METHODS THEREOF” (Washington University, priority 2005, published 2008):

Experiments:
[1] = biological target: T1, LRP6 (Homo sapiens, UniProt O75581); experiment: LRP6-mediated ^125I-DKK1 degradation in LRP6-transduced HT1080 cells; type: cell-based; parameters: plasmid pCS-Myc-hLRP6 containing the full-length human LRP6 cDNA; HA; expressed in transfected cells; host or cells: human HT1080 cells, stably transduced (pLNCX2 retroviral vector); conditions: 5 nM, 4 hours at 37° C.
T1 sequence (O75581 20-1613): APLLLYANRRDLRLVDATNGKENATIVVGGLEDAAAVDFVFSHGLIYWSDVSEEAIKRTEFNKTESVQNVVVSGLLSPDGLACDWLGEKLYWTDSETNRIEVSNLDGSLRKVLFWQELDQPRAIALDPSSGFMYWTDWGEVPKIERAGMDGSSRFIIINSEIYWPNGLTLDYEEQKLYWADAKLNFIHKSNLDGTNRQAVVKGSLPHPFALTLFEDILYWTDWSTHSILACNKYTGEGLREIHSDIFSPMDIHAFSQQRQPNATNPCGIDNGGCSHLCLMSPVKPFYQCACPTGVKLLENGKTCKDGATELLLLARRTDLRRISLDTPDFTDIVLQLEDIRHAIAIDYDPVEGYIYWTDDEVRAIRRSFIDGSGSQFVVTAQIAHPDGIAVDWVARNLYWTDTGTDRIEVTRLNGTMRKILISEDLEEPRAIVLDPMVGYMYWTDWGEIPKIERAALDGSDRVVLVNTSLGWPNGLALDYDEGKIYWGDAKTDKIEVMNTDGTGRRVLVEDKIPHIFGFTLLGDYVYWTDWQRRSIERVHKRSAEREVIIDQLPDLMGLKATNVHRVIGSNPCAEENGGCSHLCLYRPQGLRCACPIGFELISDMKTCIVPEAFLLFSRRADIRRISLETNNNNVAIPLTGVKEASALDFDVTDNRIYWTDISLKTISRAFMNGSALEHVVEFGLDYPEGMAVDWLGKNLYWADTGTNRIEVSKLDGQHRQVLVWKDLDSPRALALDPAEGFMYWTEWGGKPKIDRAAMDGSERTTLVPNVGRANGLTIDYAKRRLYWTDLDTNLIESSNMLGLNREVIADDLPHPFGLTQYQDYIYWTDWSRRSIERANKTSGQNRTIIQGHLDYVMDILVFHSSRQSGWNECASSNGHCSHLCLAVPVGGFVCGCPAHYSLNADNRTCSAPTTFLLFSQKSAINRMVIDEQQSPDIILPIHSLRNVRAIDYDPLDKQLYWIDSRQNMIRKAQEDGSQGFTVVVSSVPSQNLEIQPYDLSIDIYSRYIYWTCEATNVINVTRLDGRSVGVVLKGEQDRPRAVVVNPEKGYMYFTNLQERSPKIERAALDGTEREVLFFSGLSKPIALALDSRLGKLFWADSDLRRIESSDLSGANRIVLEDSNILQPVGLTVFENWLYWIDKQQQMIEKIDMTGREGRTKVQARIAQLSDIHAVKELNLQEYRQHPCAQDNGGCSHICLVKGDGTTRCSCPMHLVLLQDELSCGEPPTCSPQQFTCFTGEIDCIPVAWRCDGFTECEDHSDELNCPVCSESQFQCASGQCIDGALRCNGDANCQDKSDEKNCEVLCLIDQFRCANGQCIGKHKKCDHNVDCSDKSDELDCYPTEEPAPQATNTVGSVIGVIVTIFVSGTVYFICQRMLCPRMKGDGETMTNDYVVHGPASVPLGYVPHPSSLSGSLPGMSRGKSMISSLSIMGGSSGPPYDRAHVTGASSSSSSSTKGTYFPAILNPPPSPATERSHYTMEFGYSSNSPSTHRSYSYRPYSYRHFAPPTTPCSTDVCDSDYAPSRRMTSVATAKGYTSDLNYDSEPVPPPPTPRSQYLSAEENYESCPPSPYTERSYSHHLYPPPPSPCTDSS
Protocol: Ligand degradation was performed using the methods as described (Li, Y., J. Biol. Chem. 275: 17187-17194, 2000). Briefly, 2×10^5 cells were seeded into 12-well dishes 1 day prior to assay. Pre-warmed assay buffer (minimal Eagle's medium containing 0.6% BSA with radioligand, 0.6 ml/well) was added to cell monolayers in the absence or the presence of unlabeled 500 nM RAP or 500 nM Mesd, followed by incubation for 4 hours at 37° C. Thereafter, the medium overlying the cell monolayers was removed and proteins were precipitated by addition of BSA to 10 mg/ml and trichloroacetic acid to 20%. […] After each time point, the plates were quickly placed on ice and the assay buffer was replaced with cold stop/strip solution. ^125I-anti-HA IgG that remained on the cell surface was stripped by incubation of cell monolayers with cold stop/strip solution for a total of 20 minutes (0.75 ml for 10 minutes, twice) and counted. Cell monolayers were then solubilized with low-SDS lysis buffer and counted. […] The fraction of internalized ^125I-anti-HA IgG after each time point was calculated and plotted.
RAP is a receptor antagonist for members of the LDLR family, and is able to inhibit the binding of most known ligands of the LDLR family members. […] Cell-surface-bound Myc-tagged DKK proteins were fixed and detected by immunofluorescence staining with anti-Myc antibody. […]

[2] = test system: Wnt signaling; experiment: Wnt signalling TCF/LEF-Luc assay in HEK293 cells (Wnt3A conditioned medium plus Dkk1); type: cell-based; conditions: Wnt3A conditioned medium plus Dkk1 protein at 10 nM
Protocol: HEK293 cells were plated into six-well plates. For each well, […] of the TOP-[…] luciferase construct (Upstate Biotechnology) was cotransfected with 0.8 μg Mesd-expressing vector, 0.8 μg Mesd mutant-expressing vector, or empty vector. A β-galactosidase-expressing vector (Promega, Madison, Wis.) was included as an internal control for transfection efficiency. After 48 hours, cells were lysed and both luciferase and β-galactosidase activities were determined with enzyme assay kits (Promega). The luciferase activity was determined with a luminometer using the Dual Luciferase Assay system (Promega). Luciferase activity was normalized to the activity of the P-galactosidase.

[3] = biological target: T1, LRP6; experiment: ^125I-DKK1 binding to LRP6-transduced HT1080 cells; parameters: plasmid pCS-Myc-hLRP6 containing the full-length human LRP6 cDNA; HA; expressed in transfected cells; host or cells: human HT1080 cells, stably transduced (pLNCX2 retroviral vector); conditions: ^125I-DKK1 5 nM, 3 hours at 4° C.
Protocol: (§1) Cells (2×10^5) were seeded into 12-well dishes 1 day prior to assay. Ligand-binding buffer (minimal Eagle's medium containing 0.6% BSA with a different concentration of radioligand, 0.6 ml/well) was added to cell monolayers, in the absence or the presence of 500 nM unlabeled RAP or 500 nM unlabeled Mesd, followed with incubation for 0-4 hours at 4° C. Thereafter, overlying buffer containing unbound ligand was removed, and cell monolayers were washed and lysed in low-SDS lysis buffer (62.5 mM Tris-HCl pH 6.8, 0.2% SDS, 10% v/glycerol) and counted.
RAP is a receptor antagonist for members of the LDLR family, and is able to inhibit the binding of most known ligands of the LDLR family members. […] In these experiments, Serum-free conditioned medium was harvested from HEK293 cells transiently transfected with cDNA for human Myc-DKK1 and allowed to bind to LRP6-transduced HT1080 cells (B,C) and control cells (A) in the absence (A,B) or presence (C) of 1 μM Mesd. Cell-surface-bound Myc-tagged DKK proteins were fixed and detected by immunofluorescence staining with anti-Myc antibody. […] Binding of 125I-DKK1 (5 nM) to LRP6-transduced HT1080 cells or the control cells was carried out for 3 hours at 4° C. in the absence (total) or presence of 500 nM RAP or 500 nM Mesd. […] LRP6-mediated 125I-Mesd (5 nM) degradation was carried out for 4 hours at 37° C. in the absence or presence of 500 nM RAP or 500 nM Mesd. Values are the means of triple determinations with the s.d. indicated by error bars. Bar, 10 μm.

[4] = biological target: T1, LRP6; experiment: ^125I-Mesd cell surface ligand binding to LRP6-transduced HT1080 cells; parameters: plasmid pCS-Myc-hLRP6 containing the full-length human LRP6 cDNA; HA; expressed in transfected cells; host or cells: human HT1080 cells, stably transduced (pLNCX2 retroviral vector); conditions: for Binding of Mesd truncation mutants to cell surface LRP6: LRP6-transduced HT1080 cells, 5 nM ^125I-labelled, 3 hours at 4° C. for Mesd (150-195)
Protocol: To examine whether Mesd binds with high affinity to […] at the cell surface, cell surface ligand binding experiments were performed with cells stably transduced with LRP6 cDNA. Human HT1080 cells, which express undetectable levels of LRP6, were transduced with a viral vector alone (pLNCX2) or with vector containing LRP6 cDNA (Li, Y., Oncogene 23: 9129-9135, 2004) and used for ^125I-Mesd binding (FIG. 1A). ^125I-Mesd (5 nM) reached maximal binding after 2 hours incubation at 4° C. with LRP6-expressing HT1080 cells (FIG. 1A).
(A) Time course of ^125I-Mesd (5 nM) binding to LRP6-transduced HT1080 cells and the control cells. Assay was carried out for the indicated periods at 4° C. in the absence (total) or presence of 500 nM Mesd (non-specific). (B) Saturation binding of ^125I-Mesd to LRP6-transduced HT1080 cells and the control cells. Assay was carried out at indicated concentrations for 3 hours at 4° C. in the absence (total) or presence (non-specific) of 500 nM Mesd. (C) Scatchard plots of data in B. All values are the average of triple determinations with the s.d. indicated by error bars.
as §1

[5] = biological target: T1, LRP6; experiment: ^125I-RAP binding to LRP6-transduced HT1080 cells and control cells; parameters: plasmid pCS-Myc-hLRP6 containing the full-length human LRP6 cDNA; HA; expressed in transfected cells; host or cells: human HT1080 cells, stably transduced (pLNCX2 retroviral vector)
Protocol: as §1
Receptor-associated protein (RAP) binds with high affinity to LRP, megalin, VLDLR and apoER2, and with a lower affinity to the LDLR (Bu, G., Int. Rev. Cytol. 209, 79-116. 2001). To determine whether RAP and Mesd bind to identical, overlapping, or different sites on the receptors, binding and competition analysis of these two chaperones with HT1080 cells stably expressing LRP6 was performed.
In FIG. 8A, binding of ^125I-RAP (5 nM) to LRP6-transduced HT1080 cells and the control cells was carried out for 4 hours at 4° C. in the absence (total) or presence of 500 nM RAP, or 500 nM Mesd. In FIG. 8B, binding of ^125I-Mesd (5 nM) to LRP6-transduced HT1080 cells was carried out for 2 hours at 4° C. in the absence (total) or presence of various concentrations of RAP or 500 nM Mesd. (C) LRP6-mediated ^125I-Mesd (5 nM) degradation was carried out for 4 hours at 37° C. in the absence or presence of 500 nM Mesd or 500 nM RAP. Values are the means of triple determinations with the s.d. indicated by error bars.

[6] = biological target: T1, LRP6; experiment: LRP6-mediated ^125I-Mesd degradation in LRP6-transduced HT1080 cells; type: cell-based; parameters: plasmid pCS-Myc-hLRP6 containing the full-length human LRP6 cDNA; HA; expressed in transfected cells; host or cells: human HT1080 cells, stably transduced (pLNCX2 retroviral vector); conditions: 500 nM unlabeled competitor, ^125I-Mesd 5 nM, 4 hours at 37° C.
Protocol: Ligand degradation was performed using the methods as described (Li, Y., J. Biol. Chem. 275: 17187-17194, 2000). Briefly, 2×10^5 cells were seeded into 12-well dishes 1 day prior to assay. Pre-warmed assay buffer (minimal Eagle's medium containing 0.6% BSA with radioligand, 0.6 ml/well) was added to cell monolayers in the absence or the presence of unlabeled 500 nM RAP or 500 nM Mesd, followed by incubation for 4 hours at 37° C. Thereafter, the medium overlying the cell monolayers was removed and proteins were precipitated by addition of BSA to 10 mg/ml and trichloroacetic acid to 20%. Degradation of radioligand was defined as the appearance of radioactive fragments in the overlying medium that were soluble in 20% trichloroacetic acid. Kinetic analysis of endocytosis LRP6-transduced HT1080 cells were plated in 12-well plates at a density of 2×10^5 cells/well and used after overnight culture. Cells were rinsed twice in ice-cold assay buffer (minimal Eagle's medium containing 0.6% BSA), and ^125I-anti-HA IgG was added at 1 nM final concentration in cold assay buffer (0.5 ml/well). The binding of ^125Ianti- HA IgG was carried out at 4° C. for 90 minutes with gentle rocking. Unbound ^125I-anti-HA IgG was removed by washing cell monolayers three times with cold assay buffer. Ice-cold stop/strip solution (0.2 M acetic acid, pH 2.6, 0.1 M NaCl) was added to one set of plates without warming up and kept on ice. The remaining plates were then placed in a 37° C. water bath and 0.5 ml assay buffer prewarmed to 37° C. was quickly added to cell monolayers to initiate internalization. After each time point, the plates were quickly placed on ice and the assay buffer was replaced with cold stop/strip solution. ^125I-anti-HA IgG that remained on the cell surface was stripped by incubation of cell monolayers with cold stop/strip solution for a total of 20 minutes (0.75 ml for 10 minutes, twice) and counted. Cell monolayers were then solubilized with low-SDS lysis buffer and counted. […] The fraction of internalized ^125I-anti-HA IgG after each time point was calculated and plotted. […]

[7] = biological target: T2, LRP6 on LRP6-transduced HT1080 cells (HA-tagged) (UniProt O75581 20-1613, limits assumed); experiment: competition against 125I-DKK1 for LRP6 (FIG. 10D)
T2 construct: whole, on cells; also called mature LRP6; cell surface LRP6
T2 sequence (O75581 20-1613 limits assumed): as the sequence (O75581 20-1613) above

[8] = biological target: T3, human Myc-tagged LRP5 on transiently transfected HEK293 cells (human, UniProt O75197 32-1615); experiment: competition against 125I-Mesd for LRP5 (FIG. 10A)
T3 construct: whole, on cells; also called mature LRP5; pcDNA3.1C-Myc-hLRP5
T3 sequence (O75197 32-1615): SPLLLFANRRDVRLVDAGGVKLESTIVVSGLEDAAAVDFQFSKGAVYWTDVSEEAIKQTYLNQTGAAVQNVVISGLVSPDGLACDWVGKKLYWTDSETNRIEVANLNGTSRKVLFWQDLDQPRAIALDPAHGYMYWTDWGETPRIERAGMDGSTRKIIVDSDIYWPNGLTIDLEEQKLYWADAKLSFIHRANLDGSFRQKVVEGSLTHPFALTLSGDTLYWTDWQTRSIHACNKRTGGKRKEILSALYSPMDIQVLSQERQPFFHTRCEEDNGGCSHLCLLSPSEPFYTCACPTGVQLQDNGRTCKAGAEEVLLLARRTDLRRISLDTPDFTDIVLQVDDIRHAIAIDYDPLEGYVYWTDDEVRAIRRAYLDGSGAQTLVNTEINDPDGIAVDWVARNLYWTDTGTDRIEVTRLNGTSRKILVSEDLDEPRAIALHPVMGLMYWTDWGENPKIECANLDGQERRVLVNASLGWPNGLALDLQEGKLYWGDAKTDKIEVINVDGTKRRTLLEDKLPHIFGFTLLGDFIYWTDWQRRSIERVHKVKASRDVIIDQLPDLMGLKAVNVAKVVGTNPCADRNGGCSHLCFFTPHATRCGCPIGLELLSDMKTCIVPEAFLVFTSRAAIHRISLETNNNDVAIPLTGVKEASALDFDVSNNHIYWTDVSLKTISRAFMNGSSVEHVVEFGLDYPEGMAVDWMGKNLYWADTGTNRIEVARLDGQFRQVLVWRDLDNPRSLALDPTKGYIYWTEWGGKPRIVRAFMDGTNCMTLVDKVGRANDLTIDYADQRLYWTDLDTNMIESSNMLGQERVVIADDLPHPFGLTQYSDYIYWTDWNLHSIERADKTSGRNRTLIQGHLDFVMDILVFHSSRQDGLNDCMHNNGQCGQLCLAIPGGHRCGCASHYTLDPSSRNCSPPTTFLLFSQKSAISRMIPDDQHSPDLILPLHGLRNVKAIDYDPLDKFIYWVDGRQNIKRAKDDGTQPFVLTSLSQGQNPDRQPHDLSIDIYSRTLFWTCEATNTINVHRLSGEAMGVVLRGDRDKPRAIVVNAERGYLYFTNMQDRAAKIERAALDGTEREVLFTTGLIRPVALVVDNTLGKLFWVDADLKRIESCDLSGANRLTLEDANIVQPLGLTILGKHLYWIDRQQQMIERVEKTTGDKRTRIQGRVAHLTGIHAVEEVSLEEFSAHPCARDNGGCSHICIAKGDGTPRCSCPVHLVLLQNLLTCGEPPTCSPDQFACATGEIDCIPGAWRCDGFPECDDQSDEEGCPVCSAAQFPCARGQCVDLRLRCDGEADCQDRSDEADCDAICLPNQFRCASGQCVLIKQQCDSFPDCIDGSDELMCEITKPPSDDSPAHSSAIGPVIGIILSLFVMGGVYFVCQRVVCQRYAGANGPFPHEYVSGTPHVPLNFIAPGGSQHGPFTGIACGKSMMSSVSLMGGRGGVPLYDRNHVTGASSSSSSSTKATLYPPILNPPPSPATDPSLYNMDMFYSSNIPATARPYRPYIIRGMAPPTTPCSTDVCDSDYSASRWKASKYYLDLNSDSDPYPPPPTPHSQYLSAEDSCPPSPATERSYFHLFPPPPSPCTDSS

Molecule: DKK1: human DKK1 protein, LRP6-specific ligand and antagonist; recombinant (R&D Systems) or Myc-tagged in conditioned medium
- ^125I-DKK1 degradation in LRP6-expressing HT1080 cells versus control cells [1]: significantly higher levels
- Effect of Dkk1 on Wnt signaling (luciferase activity) [2]: inhibits Wnt signaling
- ^125I-DKK1 binding in LRP6-expressing HT1080 cells versus control cells [3]: significantly higher levels

Molecule: KGGGSKEKNKTKPEKAKKKEGDRKPRASKEDNRAGSR [SEQ ID NO: 21]
- Restoring of Wnt signaling inhibited by Dkk1 (luciferase activity) [2]: at least partially restoring Wnt signaling

Molecule: QMYPGKGGGSKEKNKTKPEKAKKKEGDPKPRASKEDNRAGSRREDL [SEQ ID NO: 22]
- Restoring of Wnt signaling inhibited by Dkk1 (luciferase activity) [2]: at least partially restoring Wnt signaling
- Binding of Mesd truncation mutants to cell surface LRP6 [4]: necessary and sufficient for LRP6 binding

Molecule: RAP: human recombinant 39 kDa receptor-associated protein, expressed in a GST expression vector [reference compound]
- Effect of excess unlabeled competitor on increased DKK1 binding ([3]; 500 nM competitor): not
- Inhibition of ^125I-Mesd binding to cell surface LRP6 ([4]; 500 nM unlabeled competitor, ^125I-Mesd 5 nM, 2 hours at 4° C.): ~60%
- Effect of excess unlabeled competitor on ^125I-RAP binding to control cells ([5]; 500 nM competitor, control cells expressing vector alone, 4° C.): completely eliminated this binding
- Increase of RAP binding in LRP6 expressing HT1080 cells compared to control cells ([5]; ^125I-RAP 5 nM, 4 hours at 4° C.): ~20%
- Inhibition of ^125I-Mesd degradation [6]: only partially

B1: Mesd(12-155): truncated Mesd mutant lacking both the N-terminal and C-terminal regions (protein)
chain: RKKKDIRDYNDADMARLLEQWEKDDDIEEGDLPEHKRPSAPIDFSKLDPGKPESILKMTKKGKTLMMFVTVSGNPTEKETEEITSLWQGSLFNANYDVQRFIVGSDRAIFMLRDGSYAWEIKDFLVSQDRCAEVTLEGQMYPGK
modifications: left off: small tags and cut ends
notes: truncated Mesd mutant lacking both the N-terminal and C-terminal regions
- Binding of Mesd truncation mutants to cell surface LRP6 [4]: completely abolished LRP6 binding

B2: MESD(12-195): truncated Mesd mutant lacking the N-terminal region (N-terminal 11 amino acids of mouse Mesd) (protein)
chain: RKKKDIRDYNDADMARLLEQWEKDDDIEEGDLPEHKRPSAPIDFSKLDPGKPESILKMTKKGKTLMMFVTVSGNPTEKETEEITSLWQGSLFNANYDVQRFIVGSDRAIFMLRDGSYAWEIKDFLVSQDRCAEVTLEGQMYPGKGGGSKEKNKTKPEKAKKKEGDRKPRASKEDNRAGSRREDL
modifications: left off: small tags and cut ends
- Binding of Mesd truncation mutants to cell surface LRP6 [4]: no effect on LRP6 binding

B3: Mesd oligopeptide KGGGSKEKNKTKPEKAKKKEGDPKPRASKEDNRAGSR (SEQ ID NO: 20) (peptide)
peptide: KGGGSKEKNKTKPEKAKKKEGDPKPRASKEDNRAGSR
notes: also called the oligopeptide
- fold reduction of ^125I-DKK1 binding [7]: > 2 fold
- fold reduction of ^125I-Mesd binding [8]: ~10 fold
